Assay results reported in the supplement of paper PMC10567573.

B1: TOR1AIP2 (parent)
chain: DGAGRTWQDSDTVKLLVDLELSYG
B2: C2CD2L (parent)
chain: EPAGSLRELGVWRSLLRLRATRAG

Variants of: B1
Assay: protein stability index of a GFP-peptide fusion (GPS, HEK-293T) (PSI 1-6); higher = more stable
Conditions: c terminus: a fixed tail appended
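Further: lentivirally expressed fusions sorted by FACS into six bins by GFP to DsRed ratio, PSI derived from sequencing read proportions per bin multiplied by bin number.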

Protein stability index of substitutions, site by site:
G2: T 4.39 | V 1.39 | E 1.91 | Y 2.53 | L 1.74 | C 3.68 | S 1.84 | A 2.29 | R 2.06 | H 1.07 | P 2.31 | D 2.53 | K 3.03 | N 2.01 | Q 2.69 | I 1.28
A3: K 1.65 | H 1.39 | D 1.53 | S 1.4 | V 1.41 | Y 2.5 | R 1.79 | I 1.09 | P 1.13 | C 2.55 | N 1.73 | M 2.51 | E 1.81
R5: K 2.1 | V 3.3 | G 1.64 | T 1.46 | C 1.13 | A 1.95 | P 1.84 | H 3.25 | N 2.74 | L 2.27 | D 2.39 | I 1.85 | Y 2.33 | E 2.67 | F 1.74 | W 2.76 | Q 2.05
Q8: E 2.26 | D 1.24
D1: G 1.68 | N 1.32 | K 4.34 | E 1.69 | Q 1.53 | H 2.29 | W 2.93 | T 3.05
T6: A 1.74 | E 2.62 | W 1.1 | Y 1.58 | K 3.73 | I 2.17 | S 2.96 | C 1.92 | Q 2.03 | D 2.37
G4: R 1.93 | V 2.22 | Q 1.43 | Y 3.85 | F 2.26 | E 2.58 | L 2.34 | P 2.12 | C 2.02 | I 2.38 | S 2.01 | A 1.8 | H 1.62 | N 2.05 | T 2.05 | M 1.35 | K 2.63
W7: C 2.79 | D 4.15 | G 3.22 | F 2.91 | L 2.03 | I 2.5 | H 2.83 | E 4.3 | A 3.35 | P 2.45 | M 2.36 | N 4.06 | V 2.44 | R 3.68

Variants of: B2
Assay: as above
Conditions: c terminus: a fixed tail appended

Protein stability index, by site and new letter:
A23: T 2.29 | W 2.28 | H 2.05 | L 2.2 | Y 2.75 | P 2.47 | M 1.62 | C 1.7 | R 3.33 | K 2.94 | F 1.07 | Q 2.23
W12: M 2.42 | T 4.02 | P 3.7 | A 3.02 | E 3.84 | C 3.48 | S 4.37 | D 1.9 | Q 3.87
S14: G 1.42 | R 1.91 | Q 2.12 | V 1.02 | K 1.96 | M 2.41 | L 1.33 | D 1.56 | E 2.47 | W 2.5 | F 2.14 | P 2.98 | A 1.66
A3: K 2.04 | E 2.65 | F 1.47 | L 1.59 | M 2.19 | I 2.84 | V 2.77 | W 1.97 | P 1.63 | T 2.93
L9: W 2.37 | T 2.92 | G 3.69 | Y 4.48 | I 1.71 | S 3.16 | F 3.97 | C 3.04 | E 3.3 | M 2.07 | P 3.7 | Q 2.77
G24: C 2.99 | Q 2.77 | Y 1.99 | W 3.29 | D 2.66 | V 2.25 | N 1.91 | P 1.96 | L 2.87 | F 2.11 | I 1.97 | A 2.89
L6: C 2.17 | I 2.2 | M 2.45 | A 3.35 | W 2.39 | S 2.95 | T 2.83 | K 2.36
R22: E 2.25 | P 2.14 | S 2.23 | H 2.01 | F 2.1 | D 2.3 | Y 1.34 | G 2.36
L16: R 2.57 | I 2.36 | F 2.26 | T 2.74 | G 3.32 | P 4.09 | Y 2.3 | K 3.56
G4: P 3.02 | L 1.97 | C 2.04 | N 1.98 | E 3.52 | D 3.19 | Q 3.42 | I 2.07 | M 2.39 | T 2.4 | S 2.4 | Y 3.48 | F 2.49
S5: W 1.82 | Y 2.73 | A 2.31 | V 2.04 | D 2.56 | R 2.03 | C 2.36 | F 1.21 | E 3.05
G10: S 3.18 | W 1.67 | T 2.9 | D 2.99 | I 1.86 | L 2.02 | N 4.3 | M 1.99 | H 3.78
T21: F 1.96 | K 2.97 | L 2.12 | C 2.07 | Y 2.42 | I 2.84 | M 2.3 | W 1.31
A20: H 2.67 | S 1.94 | D 3.34 | L 2.58 | M 2.48 | T 1.85 | P 3.18 | E 3 | Q 2.04
V11: H 3.11 | D 3.74 | T 2.95 | I 2.5 | L 2.17 | A 2.61 | K 3.37 | Y 2.21 | N 3.27 | R 2.25
R17: C 2.15 | W 1.6 | E 3.13 | T 2.3 | M 1.2 | G 3.26 | F 1.95 | D 3.73 | I 2.46 | L 1.53 | A 2.91 | S 3.04 | H 2.65
R13: T 2.05 | Y 1.91 | Q 2.56 | F 1.81 | P 2.55 | H 2.86 | D 2.62
P2: Y 2.04 | E 2.5 | A 2.08 | T 1.93 | V 1.82 | H 1.42 | G 1.1 | N 1.5 | R 2.41
L15: Q 3.84 | G 3.51 | P 3.76 | E 4.27 | T 2.5 | N 3.47 | M 2.48 | K 2.96 | D 3.67
E1: R 2.25 | N 2.09 | M 1.91 | T 1.84 | L 2.31 | I 1.91 | P 2.25 | F 2.41
L18: W 1.53 | S 3.53 | R 3.54 | P 3.97 | D 2.64 | I 2.65 | C 2.67 | F 2.07 | A 3.73
R7: G 3.07 | C 1.74 | E 2.29 | K 2.07 | H 2.67 | M 2.92 | F 1.14 | W 1.75 | L 2.44 | I 1.64 | A 3.16 | P 3.35
E8: S 2.49 | D 3.43 | I 1.57 | R 2.06 | F 2.9 | M 1.73 | P 2.93 | T 2.1 | N 3
R19: D 2.73 | Y 1.48 | M 2.2 | H 1.85 | W 2.22 | K 2.99 | T 2.91 | V 2.31 | S 3.27 | L 2.95 | Q 1.98
